The target in the test is Met receptor tyrosine kinase (human (endogenous in EHMES-1)) (UniProt P08581).
Sequence of UniProt P08581 (P08581 25-1390): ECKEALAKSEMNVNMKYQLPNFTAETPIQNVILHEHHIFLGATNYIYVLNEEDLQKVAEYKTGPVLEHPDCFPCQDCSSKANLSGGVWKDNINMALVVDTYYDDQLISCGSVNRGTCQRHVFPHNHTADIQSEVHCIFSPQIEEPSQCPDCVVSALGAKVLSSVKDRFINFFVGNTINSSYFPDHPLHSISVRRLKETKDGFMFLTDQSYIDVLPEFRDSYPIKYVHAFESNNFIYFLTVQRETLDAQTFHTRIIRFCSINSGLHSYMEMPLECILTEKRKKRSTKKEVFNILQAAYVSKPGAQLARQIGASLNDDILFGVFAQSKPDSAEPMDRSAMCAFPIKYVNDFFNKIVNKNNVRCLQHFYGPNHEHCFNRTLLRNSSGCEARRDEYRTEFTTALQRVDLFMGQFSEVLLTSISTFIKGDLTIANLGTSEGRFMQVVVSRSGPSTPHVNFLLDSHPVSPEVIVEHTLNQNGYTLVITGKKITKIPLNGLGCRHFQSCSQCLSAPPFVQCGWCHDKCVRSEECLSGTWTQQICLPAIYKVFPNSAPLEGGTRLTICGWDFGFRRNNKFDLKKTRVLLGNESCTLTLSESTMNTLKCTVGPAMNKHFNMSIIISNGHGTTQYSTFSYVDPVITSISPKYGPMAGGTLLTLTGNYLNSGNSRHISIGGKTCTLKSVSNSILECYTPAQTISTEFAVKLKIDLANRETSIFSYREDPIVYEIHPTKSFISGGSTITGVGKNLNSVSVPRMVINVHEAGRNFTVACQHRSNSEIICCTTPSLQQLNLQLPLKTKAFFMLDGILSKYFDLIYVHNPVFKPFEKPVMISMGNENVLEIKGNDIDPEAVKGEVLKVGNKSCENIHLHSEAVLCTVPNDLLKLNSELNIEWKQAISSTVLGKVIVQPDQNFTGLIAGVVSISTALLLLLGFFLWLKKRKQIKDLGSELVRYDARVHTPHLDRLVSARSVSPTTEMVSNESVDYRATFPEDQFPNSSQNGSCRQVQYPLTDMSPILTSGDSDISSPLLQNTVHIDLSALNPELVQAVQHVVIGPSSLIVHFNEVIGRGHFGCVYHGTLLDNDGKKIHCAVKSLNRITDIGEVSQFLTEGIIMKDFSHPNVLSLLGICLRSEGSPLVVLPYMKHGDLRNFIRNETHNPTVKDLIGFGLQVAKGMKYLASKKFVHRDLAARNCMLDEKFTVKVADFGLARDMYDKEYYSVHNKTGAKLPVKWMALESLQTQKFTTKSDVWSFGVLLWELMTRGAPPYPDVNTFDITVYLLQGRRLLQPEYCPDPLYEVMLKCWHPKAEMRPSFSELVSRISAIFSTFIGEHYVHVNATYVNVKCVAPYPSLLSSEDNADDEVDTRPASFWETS

As to K144A mutant NK1 (ligand), the Met Y1234/1235 phosphorylation in EHMES-1 cells, cell-based ELISA, at 30 nM, compared with wild-type NK1 was 52.2%. Regarding N127A mutant NK1 (ligand), the Met Y1234/1235 phosphorylation in EHMES-1 cells, cell-based ELISA, at 30 nM, compared with wild-type NK1 came out at 8.3%. V140A mutant NK1 (ligand) had a Met Y1234/1235 phosphorylation in EHMES-1 cells, cell-based ELISA, at 30 nM, compared with wild-type NK1 of 23.8%. In turn, “wild-type hepatocyte growth factor (two-chain HGF) (from UniProt P14210-3 32-489) (ligand)” gave a Met Y1234/1235 phosphorylation in EHMES-1 cells, cell-based ELISA, compared with 30 nM wild-type NK1 (fold of 30 nM wild-type NK1) of 2.5.

The values are drawn from PMC8431453.
